From US20100209490A1

How the values were obtained:
[1] = molecular target: human DR5 (death receptor 5) (human) (UniProt O14763); test: cell-based or functional assay
[2] = molecular target: human Fas (human) (UniProt P25445); test: cell-based or functional assay
Chain of human Fas (human) (P25445 26-335): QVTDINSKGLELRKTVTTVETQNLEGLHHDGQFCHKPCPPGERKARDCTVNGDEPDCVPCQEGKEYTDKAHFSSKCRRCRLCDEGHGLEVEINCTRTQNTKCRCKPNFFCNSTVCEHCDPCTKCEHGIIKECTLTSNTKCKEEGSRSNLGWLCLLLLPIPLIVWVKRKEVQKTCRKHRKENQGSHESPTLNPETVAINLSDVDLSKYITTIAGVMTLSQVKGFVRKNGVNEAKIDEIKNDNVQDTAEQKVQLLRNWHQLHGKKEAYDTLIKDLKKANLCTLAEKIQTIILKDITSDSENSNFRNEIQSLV

Mouse Anti-hDR5 Antibody (MAB631)
EC50 (50% cell viability), Jurkat cells, immunoliposome of Example 36 [1]: 0.069 ng/mL
EC50 (50% cell viability), Jurkat cells, immunoliposome of Example 37 [1]: 0.089 ng/mL
EC50 (50% cell viability), Jurkat cells, secondary antibody-cross-linked MAB631 [1]: 13.4 ng/mL
EC50 Ab/IL, Jurkat cells, cross-linked MAB631 vs immunoliposome of Example 36 [1]: 194
EC50 Ab/IL, Jurkat cells, cross-linked MAB631 vs immunoliposome of Example 37 [1]: 150
cell viability at 0.1 ng/ml, Jurkat cells, immunoliposome of Example 36 (% cell viability) [1]: < 50
cell viability at 0.1 ng/ml, Jurkat cells, immunoliposome of Example 37 (% cell viability) [1]: < 50
cell viability at 10 or 1000 ng/ml, Jurkat cells, immunoliposome of Example 36 (% cell viability) [1]: < 5
cell viability at 10 or 1000 ng/ml, Jurkat cells, immunoliposome of Example 37 (% cell viability) [1]: < 5

Mouse Anti-hDR5 Antibody (MAB6311)
EC50 (50% cell viability), Jurkat cells, immunoliposome of Example 38 [1]: 0.075 ng/mL
EC50 (50% cell viability), Jurkat cells, immunoliposome of Example 39 [1]: 0.083 ng/mL
EC50 (50% cell viability), Jurkat cells, secondary antibody-cross-linked MAB6311 [1]: 2.39 ng/mL
EC50 Ab/IL, Jurkat cells, cross-linked MAB6311 vs immunoliposome of Example 38 [1]: 31.9
EC50 Ab/IL, Jurkat cells, cross-linked MAB6311 vs immunoliposome of Example 39 [1]: 28.8
cell viability at 0.1 ng/ml, Jurkat cells, immunoliposome of Example 38 (% cell viability) [1]: < 40
cell viability at 0.1 ng/ml, Jurkat cells, immunoliposome of Example 39 (% cell viability) [1]: < 40
cell viability at 10 or 1000 ng/ml, Jurkat cells, immunoliposome of Example 38 (% cell viability) [1]: < 5
cell viability at 10 or 1000 ng/ml, Jurkat cells, immunoliposome of Example 39 (% cell viability) [1]: < 5

Mouse Anti-hFas Antibody (DX2)
cell viability at 500 or 5000 ng/ml, WR19L12a cells, immunoliposome of Example 40 (% cell viability) [2]: < 20
